According to patent US20060275312A1:
Values belong to the binder of their own block, whether it stands above or below them.

Columns and labels:
[1] = molecular target: human IgE from serum of a representative allergic subject with high IgE reactivity to house dust mite allergens (human); assay: competitive inhibition ELISA, human serum IgE, GST-Blo t5 on plate, inhibitor at 10 µg/ml
[2] = molecular target: human IgE from serum of a representative allergic subject with high IgE reactivity to house dust mite allergens (human); assay: competitive inhibition ELISA, human serum IgE, GST-Blo t5 on plate

- inhibition of IgE binding to GST-Bt5 [1]: 100%
B1: Blo t 5 (recombinant major house dust mite allergen from Blomia tropicalis) (protein)
chain: QEHKPKKDDFRNEFDHLLIEQANHAIEKGEHQLLYLQHQLDELNENKSKELQEKIIRELDVVCAMIEGAQGALERELKRTDLNILERFNYEEAQTLSKILLKDLKETEQKVKDIQTQ

- maximum inhibition of IgE binding to GST-Blo t5 [2]: 70%
B2: Blo t 5-Fve (two-in-one chimeric wild type) fusion protein (protein)
chain: QEHKPKKDDFRNEFDHLLIEQANHAIEKGEHQLLYLQHQLDELNENKSKELQEKIIRELDVVCAMIEGAQGALERELKRTDLNILERFNYEEAQTLSKILLKDLKETEQKVKDIQTQSATSLTFQLAYLVKKIDFDYTPNWGRGTPSSYIDNLTFPKVLTDKKYSYRVVVNGSDLGVESNFAVTPSGGQTINFLQYNKGYGVADTKTIQVFVVIPDTGNSEEYIIAEWKKT
